Test results: patent US20260209362A1 (VIB VZW, published 2026)
Residue numbers refer to the chain shown, from its start.

T1: biotinylated recombinant human IL-12Rβ2 (human, UniProt Q99665 24-622, random biotinylated)
T1 construct: Recombinant protein produced in-house, biotinylated; also called hIL-12RB2; human IL-12RB2
T1 sequence: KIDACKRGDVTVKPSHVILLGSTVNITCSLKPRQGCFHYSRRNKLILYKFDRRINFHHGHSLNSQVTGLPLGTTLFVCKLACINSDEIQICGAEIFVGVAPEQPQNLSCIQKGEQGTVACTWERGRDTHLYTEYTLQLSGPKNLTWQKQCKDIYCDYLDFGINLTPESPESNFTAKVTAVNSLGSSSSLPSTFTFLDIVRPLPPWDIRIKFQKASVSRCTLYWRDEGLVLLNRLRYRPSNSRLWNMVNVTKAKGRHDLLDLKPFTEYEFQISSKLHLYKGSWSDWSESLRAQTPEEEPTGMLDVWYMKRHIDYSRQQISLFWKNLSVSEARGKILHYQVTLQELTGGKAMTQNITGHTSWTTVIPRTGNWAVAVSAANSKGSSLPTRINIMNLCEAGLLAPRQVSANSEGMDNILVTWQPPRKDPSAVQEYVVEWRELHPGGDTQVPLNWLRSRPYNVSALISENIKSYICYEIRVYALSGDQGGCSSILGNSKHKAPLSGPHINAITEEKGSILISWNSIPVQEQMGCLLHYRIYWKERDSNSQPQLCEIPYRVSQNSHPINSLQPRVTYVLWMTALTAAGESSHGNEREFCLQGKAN

T2: biotinylated recombinant mouse IL-12Rβ2 (mouse, UniProt P97378 24-637, random biotinylated)
T2 construct: Recombinant protein produced in-house, biotinylated; also called mIL-12RB2; mouse IL-12RB2
T2 sequence: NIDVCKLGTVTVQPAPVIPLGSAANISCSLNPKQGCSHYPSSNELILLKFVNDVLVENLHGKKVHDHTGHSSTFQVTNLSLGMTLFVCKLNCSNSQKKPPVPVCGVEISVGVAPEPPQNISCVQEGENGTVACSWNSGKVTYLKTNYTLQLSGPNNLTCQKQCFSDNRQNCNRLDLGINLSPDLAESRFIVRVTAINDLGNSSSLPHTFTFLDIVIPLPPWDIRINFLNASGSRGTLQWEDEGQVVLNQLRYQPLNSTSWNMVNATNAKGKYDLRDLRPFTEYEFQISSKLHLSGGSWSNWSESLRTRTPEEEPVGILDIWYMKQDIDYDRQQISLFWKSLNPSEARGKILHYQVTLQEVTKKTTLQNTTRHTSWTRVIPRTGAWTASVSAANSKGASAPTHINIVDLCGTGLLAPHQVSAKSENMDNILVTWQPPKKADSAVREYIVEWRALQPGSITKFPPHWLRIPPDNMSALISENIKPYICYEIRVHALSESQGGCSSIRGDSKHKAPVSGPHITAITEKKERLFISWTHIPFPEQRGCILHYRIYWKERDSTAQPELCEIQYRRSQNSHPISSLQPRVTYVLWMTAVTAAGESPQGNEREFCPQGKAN

B1: anti-IL-12Rβ2 VHH clone 20468 (VHH, not shown: small tags and cut ends)
VHH: QVQLQESGGGLVQAGGSLRLSCVASGRTFSSYGMGWFRQAPGKEREFVTGISSAGSWIGDITSYADSVKGRFTISRDNAKNILYLQMNSLKPEDTAVYYCAAAYHGSRYYVGSTANEYTTWGQGTQVTVSS
notes: tested as periplasmic extract; also called 2CAM6
B2: anti-IL-12Rβ2 VHH clone 20530 (VHH, not shown: small tags and cut ends)
VHH: B1 VHH with G16D, V23A, S31N, G33N, F37L
notes: tested as periplasmic extract; also called 2CAMS7
B3: anti-IL-12Rβ2 VHH clone 20493 (VHH, not shown: small tags and cut ends)
VHH: B1 VHH with G15E
notes: tested as periplasmic extract; also called 2CAM62
B4: anti-IL-12Rβ2 VHH clone 20498 (VHH, not shown: small tags and cut ends)
VHH: QVQLQESGGGLVQAGGSLRLSCASSGRTFSSRTVGWFRQAPGKERYFVAAISRDTAYTDYADSVKGRFTISRGNAKNTVYLQMNSLNPEDTAVYYCAASHIYSGSHYISARSSDYMYWGQGTQVTVSS
notes: tested as periplasmic extract; also called 2CAM73
B5: anti-IL-12Rβ2 VHH clone 20479 (VHH, not shown: small tags and cut ends)
VHH: QVQLQESGGGLVQTGGSLRLSCAASGRTFSNSVMGWFRQAPGKEREFVAALMWSAGSEFYTDSVKGRFSISGDGAKNTVYLQMNSLKAEDTAVYYCAAKNPPHRWSDIGKSPHYEYWGQGTQVTVSS
notes: tested as periplasmic extract; also called 2CAM33
B6: anti-IL-12Rβ2 VHH clone 20483 (VHH, not shown: small tags and cut ends)
VHH: B5 VHH with T14A, M34I, M52S, T61V, V64F, G72R, G74N, A88P, H113Q, E115A
notes: tested as periplasmic extract; also called 2CAM41
B7: anti-IL-12Rβ2 VHH clone 20484 (VHH, not shown: small tags and cut ends)
VHH: B5 VHH with T14P
notes: tested as periplasmic extract; also called 2CAM42
B8: anti-IL-12Rβ2 VHH clone 20496 (VHH, not shown: small tags and cut ends)
VHH: B5 VHH with T14A, F29L
notes: tested as periplasmic extract; also called 2CAM71
B9: anti-IL-12Rβ2 VHH clone 20476 (VHH, not shown: small tags and cut ends)
VHH: QVQLQESGGGSVQAGGSLRLSCAVFGLSFKDYSMSWFRQAPGKEREFVAGISSGGSWIGDITSYADSVKGRFTISRDNAKNMIYLQMNSLKPDDTGVYYCAAASYGTRYYVGSTANEYTTWGQGTQVTVSS
notes: tested as periplasmic extract; also called 2CAM20
B10: anti-IL-12Rβ2 VHH clone 20474 (VHH, not shown: small tags and cut ends)
VHH: QVQLQESGGGLVQAGGSLRLSCAASGFTFDDYTIGWFRQAPGKEREFVAALSWSAGSTFFTDSVKDRFSISRDNAKNTVLLQMNSLKPEDTAVYYCAAKNPPHRWSDITKSLQYAYWGQGTQVTVSS
notes: tested as periplasmic extract; also called 2CAM16
B11: anti-IL-12Rβ2 VHH clone 20478 (VHH, not shown: small tags and cut ends)
VHH: QVQLQESGGGLVQAGGSLTLSCAASGMPISFNVLGWFRQIPGKERDFVAAISRDARITDYADSVKGRFTISRDNVKNTVYLQMNSLNPEDTAVYFCAAAYTYSGSHYVTARSSDYHSWGQGTQVTVSS
notes: tested as periplasmic extract; also called 2CAM30
B12: anti-IL-12Rβ2 VHH clone 20444 (VHH, not shown: small tags and cut ends)
VHH: QVQLQESGGGLVQAGGSLRLSCTASGSIFAIDDMYWYRQAPGKQREFVAYITATNSANYLDSVNGRFTISRDNAKNSVYLQMNSLKPEDTAVYYCNAKQIVGFQIDEYWGQGTQVTVSS
notes: tested as periplasmic extract; also called 2CRM18
B13: anti-IL-12Rβ2 VHH clone 20464 (VHH, not shown: small tags and cut ends)
VHH: B12 VHH with S21F
notes: tested as periplasmic extract; also called 3CRM86
B14: anti-IL-12Rβ2 VHH clone 20522 (VHH, not shown: small tags and cut ends)
VHH: B12 VHH with A14P, E107D
notes: tested as periplasmic extract; also called 2CRMS58
B15: anti-IL-12Rβ2 VHH clone 20454 (VHH, not shown: small tags and cut ends)
VHH: B12 VHH with G16D, K75E, A91V
notes: tested as periplasmic extract; also called 2CRM93
B16: anti-IL-12Rβ2 VHH clone 20518 (VHH, not shown: small tags and cut ends)
VHH: B12 VHH with A14P, K43R
notes: tested as periplasmic extract; also called 2CRMS15
B17: anti-IL-12Rβ2 VHH clone 20458 (VHH, not shown: small tags and cut ends)
VHH: B12 VHH with Q44E
notes: tested as periplasmic extract; also called 3CRM45
B18: anti-IL-12Rβ2 VHH clone 20442 (VHH, not shown: small tags and cut ends)
VHH: B12 VHH with A14P
notes: tested as periplasmic extract; also called 2CRM12
B19: anti-IL-12Rβ2 VHH clone 20455 (VHH, not shown: small tags and cut ends)
VHH: B12 VHH with A14P, A97T
notes: tested as periplasmic extract; also called 3CRM6
B20: anti-IL-12Rβ2 VHH clone 20517 (VHH, not shown: small tags and cut ends)
VHH: B12 VHH with V12A, A14P
notes: tested as periplasmic extract; also called 2CRMS10
B21: anti-IL-12Rβ2 VHH clone 20519 (VHH, not shown: small tags and cut ends)
VHH: B12 VHH with G16E
notes: tested as periplasmic extract; also called 2CRMS16
B22: anti-IL-12Rβ2 VHH clone 20456 (VHH, not shown: small tags and cut ends)
VHH: B12 VHH with A14P, R19T
notes: tested as periplasmic extract; also called 3CRM14
B23: anti-IL-12Rβ2 VHH clone 20529 (VHH, not shown: small tags and cut ends)
VHH: B12 VHH with L11S, G16D
notes: tested as periplasmic extract; also called 3CRMS94
B24: anti-IL-12Rβ2 VHH clone 20446 (VHH, not shown: small tags and cut ends)
VHH: B12 VHH with A14P, I31S
notes: tested as periplasmic extract; also called 2CRM32
B25: anti-IL-12Rβ2 VHH clone 20524 (VHH, not shown: small tags and cut ends)
VHH: B12 VHH with S62P
notes: tested as periplasmic extract; also called 3CRMS14
B26: anti-IL-12Rβ2 VHH clone 20542 (VHH, not shown: small tags and cut ends)
VHH: QVQLQESGGGLVQAGGSLRLSCAASGRTFSTYAMGWFRQAPGKEREFVAAISWSGGRTYYADSVKGRFTISRDNAKNTAYLQMSSLIPEDTAVYYCAADPADYTGSYYYQRSYDYWGQGTQVTVSS
notes: tested as periplasmic extract; also called 3CAMS12
B27: anti-IL-12Rβ2 VHH clone 20553 (VHH, not shown: small tags and cut ends)
VHH: B26 VHH with A14P
notes: tested as periplasmic extract; also called 3CAMS73
B28: anti-IL-12Rβ2 VHH clone 20515 (VHH, not shown: small tags and cut ends)
VHH: B26 VHH with T69A, S84N, I87K, A101S, T104M, Y109G, Q110A, S112R
notes: tested as periplasmic extract; also called 3CAM79
B29: anti-IL-12Rβ2 VHH clone 20466 (VHH, not shown: small tags and cut ends)
VHH: B26 VHH with G16D, A24P, A50G, A79V, S84N, I87K, A101M, T104S, Y107L, Y109A
notes: tested as periplasmic extract; also called 2CAM2
B30: anti-IL-12Rβ2 VHH clone 20471 (VHH, not shown: small tags and cut ends)
VHH: QVQLQESGGGLVQAGGSLRLSCAASGRTFVTYAMGWFRQAPGKEREFVAAISWSGGRLYYADSAKGRFTISRDNAKNTVYLQMNSLKPEDTAVYYCAADPQDYTGRDYQRRRYDYWGQGTQVTVSS
notes: tested as periplasmic extract; also called 2CAM11
B31: anti-IL-12Rβ2 VHH clone 20532 (VHH, not shown: small tags and cut ends)
VHH: B30 VHH with A64V
notes: tested as periplasmic extract; also called 2CAMS19

What follows are binders tested against T1, biotinylated recombinant human IL-12Rβ2 (assay: ELISA, periplasmic extract on biotinylated hIL-12Rβ2, signal over control wells).

ELISA binding hIL-12RB2/control [ratio]	Binder
0.955	B1
0.847	B2
1.05	B3
0.994	B4
1.07	B5
1.01	B6
1.01	B7
1.01	B8
0.956	B9
1.01	B10
1.02	B11
0.985	B12
1.29	B13
1.01	B14
0.996	B15
1.01	B16

ELISA binding hIL-12RB2/control [ratio]	Binder
1.47	B17
0.993	B18
1.4	B19
0.968	B20
0.973	B21
1.24	B22
0.858	B23
1.01	B24
0.93	B25
0.849	B26
0.99	B27
1.31	B28
1.03	B29
0.991	B30
0.812	B31

What follows are binders tested against T2, biotinylated recombinant mouse IL-12Rβ2 (assay: ELISA, periplasmic extract on biotinylated mIL-12Rβ2, signal over control wells).

ELISA binding mIL-12RB2/control [ratio]	Binder
9.24	B1
3.8	B2
14.5	B3
6.62	B4
9.41	B5
4.68	B6
4.86	B7
19.5	B8
7.26	B9
6.43	B10
8.78	B11
4.68	B12
5.44	B13
5.21	B14
5.04	B15
4.43	B16

ELISA binding mIL-12RB2/control [ratio]	Binder
28.4	B17
6.67	B18
11.5	B19
5.47	B20
5.44	B21
12.1	B22
13.2	B23
12	B24
9.62	B25
4.28	B26
15.2	B27
12	B28
8.48	B29
5.71	B30
3.81	B31
